Experimental data reported in the DeepSol protein solubility set.

Experiment: soluble on expression in E. coli; label from the status in PepcDB or PDB records

Sequence | soluble on expression in E. coli
MRVLHVCSELFPLLKTGGLADVIGALPAAQLAEGADVRIILPAFPDLRRGIPETVLVREIDTFAGRVALRYGHYRGIGIYLIDAPALYDRAGSPYHDASLYAYSDNYLRFALLGWMACELACGLDGYWRPEVVHAHDWHAGLTCAYLAARGRPARSVFTVHNLAYQGLFSADHLSELHLPAEFFQIYGLEFYGQISYLKAGLFFADHVTTVSPTYAKEITQPAFGYGMEGLLQALARQGRLTGILNGVDSDIWDPQSDTLLPTRYDAENLQAKAINKTHLQTAMGLQLAENKPIFAVVSRLTVQKGLDLVLEALPELLALGGQLVVLGSGDATLQEAFLAAAAEHSGQVGVQIGYHEAFSHRIIAGSDVILVPSRFEPCGLTQLYGLKYGTLPLVRHTGGLADTVVDCALENLADGSASGFVFNECEAQALVKAIRRAFVLWSRPKHWRHVQRHAMRLDFGWQLAAVDYLSLYRRL | not soluble
MRVLLIEKNSVLGGEIEKGLNVKGFMADVTESLEDGEYLMDIRNYDLVMVSDKNALSFVSRIKEKHSSIVVLVSSDNPTSEEEVHAFEQGADDYIAKPYRSIKALVARIEARLRFWGSNVIEIGDLTISPDEEKIIYKGREVEVKGKPFEVLTHLARHRDQIVSKEQLLDAIWEEPEMVTPNVIEVAINQIRQKMDKPLGISTVETVRRRGYRFCYPKPACEE | soluble
MRVLTKKTEEEIRRDFFGPVQEAACKPYLLDVDPRKSWCELSELRLSTLICEFKPIGINKHFHLIGIIERMGKVFDNENAQVEIFLSEENRVAFRNQQRDLLMGGRPERTSYPPKYLCRPSLEMIEDKLKKWFGLRFCEENESYPSEFNSVTDYELPEYIMAEVRELSDKRAERERNTDNGIVESEKKSTIPRRLTEEDENYDIQT | not soluble
MRVLVTGGAGFIGSSFVRYIVNTTDWEVLVYDKLTYAGRLENLHDVIDRIGFMRGDIADEEQFGRVLTEFEPDVVVNFAAETHVDRSINEPAPFMRTNIIGVFTILEAIRKRIDQIVLLHVSTDEVYGDLWNTGKEATESDPLNPSSPYSASKASGDLLIKAYGRTYGLKYRIVRPCNNYGPYQHVEKLIPRTIIRILHGKPPVIYGDGSQIRDWLYVEDTARAIHVVLEKGVDGEIYNVCGGMASTVKDIVVNILESMGKPRDYLVYGKSRPGEDRRYAMKCDKIRNLGWAPHVTLKEGLKITVKWYIENRWWWRPLLDKRYVLADHPW | soluble
MRVNDVNLMRYIQQLSLERKAPTPGSFLFNTVSELAVQQKLRGQIEGYKTTLSQIYNGIGLLNTANAGLESISTALQRARELAVQASNATLTDVERSMIQKEYEEIMRGVKRIIQQTTYNEQRVLAGDVRNLVIQTGPNEGQNVTVNIPNLEETLSELFEVDLSTFEGAQRSLETIDQALENISQIRGNVGSWMNRLESSARSVMNSYTELFKTESLFEPSVAELLLESTKEDILRQTALTGILFRMENAGNVLKLLM | not soluble
MRYDVVIIGGGLAGLTCGIRLAEQGKRCAIVSAGQNALHFSSGALDLLSHLPDGQPVSQPLDALDELARQAPHHPYSRMGAAAVAALLPQVEALLERSNISLLGNHQQNHWRMTPLGKFRACWLSPADGVTRGLADSHFGDNPLIAGIEGFLDFQSRIVAGTLQTQGIAARSDELKLPVLDRLRQNPSEFRAVNIARLLDRPENRSALVEELSLLANGNDAIIMPACLGLDSPEIVSELADALGKPVLLLPTLPPSVLGLRLHQALSQRFRQLGGMVMPGDRAVRASLSSQEIAVHSHHHRDIPLRAKHAVLASGSFFSNGLVTQFDRVTEPVFGLDVRFAEQREGWSQQDVFAPQPYMQFGAIVDEHLHPRIAGETVNNLYAIGAVLEGFDPIVQGCGAGVSLLSALHVAEQILKEGNPLEHHHHHH | soluble
MRYERIKYILLFSLMHLVYSNSTFESNPEVRNKSNIYDLPPLLDVTSVNEETPIVKRPINERIENLEFDPRFEIDQAKLEISEDKLGSGFFGEVCYGLLSMRTSNTETDTLQKLSVAVKQSNDPTQENQEKMIEDETKLMCAIGRNPNILAIIGAVTANSGSARNLLIVEFVECGDLLKFLEEKKSIFKDELVYEKNGYLLPKSIRRKTYMFNENEDDVIEESLDSLCTSDLLSFSYQIAEGMEYLASIPCVHRDLALRNVLLNKNKTIRIADFGLARKYQVDGYYRITKGVGTPMPARWMAPEVMREGKCTEKSDVWSYGVSLYEMFSLGELPYSNVSNSDVFEHVVQGNQLPMPQYCHPKMYDRMKQFWNFDATFRPSFSKCVEFFEEHLSVSATNLLEQIQKTLKSEAERQSKLEDWIRRD | not soluble
